Non-standard residues stand in square brackets, D forms with d. Groups on a side chain read outwards from the residue. No end group written: not given here. *: point of attachment. 2OEGgEgE‑C18 diacid = O=C(O)CCCCCCCCCCCCCCCCC(=O)N[C@@H](CCC(=O)N[C@@H](CCC(=O)NCCOCCOCC(=O)NCCOCCOCC(=O)*)C(=O)O)C(=O)O; C20 diacid = O=C(O)CCCCCCCCCCCCCCCCCCC(=O)*; C18 diacid = O=C(O)CCCCCCCCCCCCCCCCC(=O)*; NMeY = CN[C@@H](Cc1ccc(O)cc1)C(=O)O; Aib = CC(C)(N)C(=O)O
Key:
[1] = biological target: T1, full-length human GIPR with an N-terminal FLAG tag (human, UniProt P48546 22-466); experiment: cell-based or functional assay
T1 sequence (looked up): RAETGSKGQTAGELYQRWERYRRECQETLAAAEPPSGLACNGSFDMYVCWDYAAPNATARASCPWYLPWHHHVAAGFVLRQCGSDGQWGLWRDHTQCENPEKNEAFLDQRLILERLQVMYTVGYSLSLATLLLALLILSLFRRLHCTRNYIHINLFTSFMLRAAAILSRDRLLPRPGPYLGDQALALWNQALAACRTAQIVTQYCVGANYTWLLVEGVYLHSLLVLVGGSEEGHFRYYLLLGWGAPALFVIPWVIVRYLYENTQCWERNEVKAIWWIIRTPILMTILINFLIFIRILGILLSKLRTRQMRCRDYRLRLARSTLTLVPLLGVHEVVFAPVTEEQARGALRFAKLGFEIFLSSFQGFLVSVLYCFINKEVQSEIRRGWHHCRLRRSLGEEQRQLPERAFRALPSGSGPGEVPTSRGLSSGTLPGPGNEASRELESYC

[2] = biological target: full-length human GLP-1R with an N-terminal FLAG tag (human, UniProt P43220 24-463); experiment: cell-based or functional assay

Row | Binder | Human GIPR cAMP EC50, HEK293T [1] [nM] | Human GLP1R cAMP EC50, HEK293T [2] [nM]
1 | YXEGTFISDYSIXXDRXAQXDFVNWLLAQSG (N-methyl Tyr 1; Aib at 2,13,17,20; Lys(G5-C18 diacid) at 14; C-terminal OH) [Compound No. 53] | 0.0005 | 47.9
2 | YXEGTFISDYSIXLDSXAQXDFVNWLLAQRG (N-methyl Tyr 1; Aib at 2,13,20; Lys(G6-C18 diacid) at 17; C-terminal OH) [Compound No. 64] | 0.0002 | 110
3 | YXEGTFISDYSIAXDRXAQXDFVNWLLAQRG (N-methyl Tyr 1; Aib at 2,17,20; Lys(G5-C18 diacid) at 14; C-terminal OH) [Compound No. 63] | 0.0002 | 75.9
4 | YXEGTFISDYSIAXDSXAQXDFVNWLLAQSG (N-methyl Tyr 1; Aib at 2,17,20; Lys(G5-C18 diacid) at 14; C-terminal OH) [Compound No. 60] | 0.0003 | 100
5 | YXEGTFISDYSIXXDRXAQXDFVNWLLAQRPSSGAPPPS (N-methyl Tyr 1; Aib at 2,13,17,20; Lys(G5-C18 diacid) at 14; C-terminal OH) [Compound No. 54] | 0.0006 | 120
6 | [NMeY][Aib]EGTFISDYSI[Aib]LDR[Aib]AQ[Aib]K([2OEGgEgE-C18 diacid])FVNWLLAQKG-OH [Compound No. 66] | 0.0008 | 32.4
7 | [NMeY][Aib]EGTFISDYSIALDR[Aib]AQ[Aib]NFVNWLLAK(2OEGgEgE‑C18 diacid)SPSSGAPPPS-NH2 [Compound No. 59] | 0.0005 | > 1000
8 | [NMeY][Aib]EGTFISDYSIALDR[Aib]AQ[Aib]DFVNWLLAK(2OEGgEgE‑C18 diacid)RPSSGAPPPS-NH2 [Compound No. 58] | 0.0004 | > 1000
9 | [NMeY][Aib]EGTFISDYSIALDR[Aib]AQ[Aib]DFVNWLLAK(2OEGgEgE‑C18 diacid)RGGGGS-NH2 (N-terminus assumed; SMILES CC[C@H](C)[C@H](NC(=O)[C@H](CO)NC(=O)[C@H](Cc1ccc(O)cc1)NC(=O)[C@H](CC(=O)O)NC(=O)[C@H](CO)NC(=O)[C@@H](NC(=O)[C@H](Cc1ccccc1)NC(=O)[C@@H](NC(=O)CNC(=O)[C@H](CCC(=O)O)NC(=O)C(C)(C)NC(=O)[C@H](Cc1ccc(O)cc1)NC)[C@@H](C)O)[C@@H](C)CC)C(=O)N[C@@H](C)C(=O)N[C@@H](CC(C)C)C(=O)N[C@@H](CC(=O)O)C(=O)N[C@@H](CCCNC(=N)N)C(=O)NC(C)(C)C(=O)N[C@@H](C)C(=O)N[C@@H](CCC(N)=O)C(=O)NC(C)(C)C(=O)N[C@@H](CC(=O)O)C(=O)N[C@@H](Cc1ccccc1)C(=O)N[C@H](C(=O)N[C@@H](CC(N)=O)C(=O)N[C@@H](Cc1c[nH]c2ccccc12)C(=O)N[C@@H](CC(C)C)C(=O)N[C@@H](CC(C)C)C(=O)N[C@@H](C)C(=O)N[C@@H](CCCCNC(=O)COCCOCCNC(=O)COCCOCCNC(=O)CC[C@H](NC(=O)CC[C@H](NC(=O)CCCCCCCCCCCCCCCCC(=O)O)C(=O)O)C(=O)O)C(=O)N[C@@H](CCCNC(=N)N)C(=O)NCC(=O)NCC(=O)NCC(=O)NCC(=O)N[C@@H](CO)C(N)=O)C(C)C) [Compound No. 57] | 0.0006 | > 1000
10 | [NMeY][Aib]EGTFISDYSI[Aib]LDR[Aib]AQ[Aib]K([2OEGgEgE-C20 diacid])FVNWLLAQKG-OH [Compound No. 65] | 0.001 | 40.7
11 | [NMeY][Aib]EGTFISDYSIALDR[Aib]AQ[Aib]DFVNWLLAQK(2OEGgEgE‑C18 diacid)G-OH (N-terminus assumed; SMILES CC[C@H](C)[C@H](NC(=O)[C@H](CO)NC(=O)[C@H](Cc1ccc(O)cc1)NC(=O)[C@H](CC(=O)O)NC(=O)[C@H](CO)NC(=O)[C@@H](NC(=O)[C@H](Cc1ccccc1)NC(=O)[C@@H](NC(=O)CNC(=O)[C@H](CCC(=O)O)NC(=O)C(C)(C)NC(=O)[C@H](Cc1ccc(O)cc1)NC)[C@@H](C)O)[C@@H](C)CC)C(=O)N[C@@H](C)C(=O)N[C@@H](CC(C)C)C(=O)N[C@@H](CC(=O)O)C(=O)N[C@@H](CCCNC(=N)N)C(=O)NC(C)(C)C(=O)N[C@@H](C)C(=O)N[C@@H](CCC(N)=O)C(=O)NC(C)(C)C(=O)N[C@@H](CC(=O)O)C(=O)N[C@@H](Cc1ccccc1)C(=O)N[C@H](C(=O)N[C@@H](CC(N)=O)C(=O)N[C@@H](Cc1c[nH]c2ccccc12)C(=O)N[C@@H](CC(C)C)C(=O)N[C@@H](CC(C)C)C(=O)N[C@@H](C)C(=O)N[C@@H](CCC(N)=O)C(=O)N[C@@H](CCCCNC(=O)COCCOCCNC(=O)COCCOCCNC(=O)CC[C@H](NC(=O)CC[C@H](NC(=O)CCCCCCCCCCCCCCCCC(=O)O)C(=O)O)C(=O)O)C(=O)NCC(=O)O)C(C)C) [Compound No. 61] | 0.0007 | > 1000
12 | [NMeY][Aib]EGTFISDYSIALDR[Aib]AQ[Aib]DFVNWLLAK(2OEGgEgE‑C18 diacid)RG-OH (N-terminus assumed; SMILES CC[C@H](C)[C@H](NC(=O)[C@H](CO)NC(=O)[C@H](Cc1ccc(O)cc1)NC(=O)[C@H](CC(=O)O)NC(=O)[C@H](CO)NC(=O)[C@@H](NC(=O)[C@H](Cc1ccccc1)NC(=O)[C@@H](NC(=O)CNC(=O)[C@H](CCC(=O)O)NC(=O)C(C)(C)NC(=O)[C@H](Cc1ccc(O)cc1)NC)[C@@H](C)O)[C@@H](C)CC)C(=O)N[C@@H](C)C(=O)N[C@@H](CC(C)C)C(=O)N[C@@H](CC(=O)O)C(=O)N[C@@H](CCCNC(=N)N)C(=O)NC(C)(C)C(=O)N[C@@H](C)C(=O)N[C@@H](CCC(N)=O)C(=O)NC(C)(C)C(=O)N[C@@H](CC(=O)O)C(=O)N[C@@H](Cc1ccccc1)C(=O)N[C@H](C(=O)N[C@@H](CC(N)=O)C(=O)N[C@@H](Cc1c[nH]c2ccccc12)C(=O)N[C@@H](CC(C)C)C(=O)N[C@@H](CC(C)C)C(=O)N[C@@H](C)C(=O)N[C@@H](CCCCNC(=O)COCCOCCNC(=O)COCCOCCNC(=O)CC[C@H](NC(=O)CC[C@H](NC(=O)CCCCCCCCCCCCCCCCC(=O)O)C(=O)O)C(=O)O)C(=O)N[C@@H](CCCNC(=N)N)C(=O)NCC(=O)O)C(C)C) [Compound No. 56] | 0.0006 | > 1000
13 | [NMeY][Aib]EGTFISDYSIALDRIHQQNFVNWLLAQK-NH2 (not fully specified (residue 30)) [Compound No. 5] | 0.0007 | 123
14 | [NMeY][Aib]EGTFISDYSI[Aib]LDR[Aib]AQ[Aib]DFVNWLLAK(2OEGgEgE‑C18 diacid)RG-OH (N-terminus assumed; SMILES CC[C@H](C)[C@H](NC(=O)[C@H](Cc1ccccc1)NC(=O)[C@@H](NC(=O)CNC(=O)[C@H](CCC(=O)O)NC(=O)C(C)(C)NC(=O)[C@H](Cc1ccc(O)cc1)NC)[C@@H](C)O)C(=O)N[C@@H](CO)C(=O)N[C@@H](CC(=O)O)C(=O)N[C@@H](Cc1ccc(O)cc1)C(=O)N[C@@H](CO)C(=O)N[C@H](C(=O)NC(C)(C)C(=O)N[C@@H](CC(C)C)C(=O)N[C@@H](CC(=O)O)C(=O)N[C@@H](CCCNC(=N)N)C(=O)NC(C)(C)C(=O)N[C@@H](C)C(=O)N[C@@H](CCC(N)=O)C(=O)NC(C)(C)C(=O)N[C@@H](CC(=O)O)C(=O)N[C@@H](Cc1ccccc1)C(=O)N[C@H](C(=O)N[C@@H](CC(N)=O)C(=O)N[C@@H](Cc1c[nH]c2ccccc12)C(=O)N[C@@H](CC(C)C)C(=O)N[C@@H](CC(C)C)C(=O)N[C@@H](C)C(=O)N[C@@H](CCCCNC(=O)COCCOCCNC(=O)COCCOCCNC(=O)CC[C@H](NC(=O)CC[C@H](NC(=O)CCCCCCCCCCCCCCCCC(=O)O)C(=O)O)C(=O)O)C(=O)N[C@@H](CCCNC(=N)N)C(=O)NCC(=O)O)C(C)C)[C@@H](C)CC) [Compound No. 62] | 0.0004 | > 1000
15 | [NMeY][Aib]EGTFISDYSIALDR[Aib]AQ[Aib]NFVNWLLAK(2OEGgEgE‑C18 diacid)RG-OH (N-terminus assumed; SMILES CC[C@H](C)[C@H](NC(=O)[C@H](CO)NC(=O)[C@H](Cc1ccc(O)cc1)NC(=O)[C@H](CC(=O)O)NC(=O)[C@H](CO)NC(=O)[C@@H](NC(=O)[C@H](Cc1ccccc1)NC(=O)[C@@H](NC(=O)CNC(=O)[C@H](CCC(=O)O)NC(=O)C(C)(C)NC(=O)[C@H](Cc1ccc(O)cc1)NC)[C@@H](C)O)[C@@H](C)CC)C(=O)N[C@@H](C)C(=O)N[C@@H](CC(C)C)C(=O)N[C@@H](CC(=O)O)C(=O)N[C@@H](CCCNC(=N)N)C(=O)NC(C)(C)C(=O)N[C@@H](C)C(=O)N[C@@H](CCC(N)=O)C(=O)NC(C)(C)C(=O)N[C@@H](CC(N)=O)C(=O)N[C@@H](Cc1ccccc1)C(=O)N[C@H](C(=O)N[C@@H](CC(N)=O)C(=O)N[C@@H](Cc1c[nH]c2ccccc12)C(=O)N[C@@H](CC(C)C)C(=O)N[C@@H](CC(C)C)C(=O)N[C@@H](C)C(=O)N[C@@H](CCCCNC(=O)COCCOCCNC(=O)COCCOCCNC(=O)CC[C@H](NC(=O)CC[C@H](NC(=O)CCCCCCCCCCCCCCCCC(=O)O)C(=O)O)C(=O)O)C(=O)N[C@@H](CCCNC(=N)N)C(=O)NCC(=O)O)C(C)C) [Compound No. 55] | 0.0009 | 741

From patent US20230143604A1, “QW DOSING OF GIP RECEPTOR AGONIST PEPTIDE COMPOUNDS AND USES THEREOF” (TAKEDA PHARMACEUTICAL COMPANY LIMITED, priority 2020, published 2023)
